From patent publication US20150246947A1 (BAXALTA, published 2015)
“And” between values parts separate entries of the source, which are not always exact repeats. Identical values can stand only once. Like-named read-outs stand apart in the source and are kept apart here. Non-standard residues stand in square brackets, D forms with d. 400Mal‑PEG = 40 kD PEG moiety attached via maleimide; Cys(Me-400MA) = not defined here

T1: human Protein S (human, UniProt P07225 42-676)
T1 construct: Called 'full length Protein S' / 'human full-length Protein S'; It was coated on plates (ELISA), Eu-labeled (LANCE) or immobilized on a chip (Biacore); also called PS; full length Protein S
T1 sequence: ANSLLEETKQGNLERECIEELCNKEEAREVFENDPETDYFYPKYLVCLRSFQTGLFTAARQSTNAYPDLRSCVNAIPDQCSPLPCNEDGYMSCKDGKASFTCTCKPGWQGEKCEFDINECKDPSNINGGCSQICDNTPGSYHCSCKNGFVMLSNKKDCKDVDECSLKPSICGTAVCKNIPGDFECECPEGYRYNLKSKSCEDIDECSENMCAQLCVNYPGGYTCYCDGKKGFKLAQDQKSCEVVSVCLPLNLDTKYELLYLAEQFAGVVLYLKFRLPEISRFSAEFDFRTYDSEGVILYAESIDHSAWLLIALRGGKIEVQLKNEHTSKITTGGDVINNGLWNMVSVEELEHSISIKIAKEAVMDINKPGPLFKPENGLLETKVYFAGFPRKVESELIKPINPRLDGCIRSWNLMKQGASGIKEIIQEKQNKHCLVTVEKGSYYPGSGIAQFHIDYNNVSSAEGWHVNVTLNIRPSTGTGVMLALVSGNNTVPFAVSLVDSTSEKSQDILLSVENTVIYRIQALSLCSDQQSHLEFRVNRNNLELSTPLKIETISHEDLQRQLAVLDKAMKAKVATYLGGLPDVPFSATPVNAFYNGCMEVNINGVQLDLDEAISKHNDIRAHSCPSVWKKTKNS

T2: human Protein S (UniProt P07225 42-676)
T2 chain: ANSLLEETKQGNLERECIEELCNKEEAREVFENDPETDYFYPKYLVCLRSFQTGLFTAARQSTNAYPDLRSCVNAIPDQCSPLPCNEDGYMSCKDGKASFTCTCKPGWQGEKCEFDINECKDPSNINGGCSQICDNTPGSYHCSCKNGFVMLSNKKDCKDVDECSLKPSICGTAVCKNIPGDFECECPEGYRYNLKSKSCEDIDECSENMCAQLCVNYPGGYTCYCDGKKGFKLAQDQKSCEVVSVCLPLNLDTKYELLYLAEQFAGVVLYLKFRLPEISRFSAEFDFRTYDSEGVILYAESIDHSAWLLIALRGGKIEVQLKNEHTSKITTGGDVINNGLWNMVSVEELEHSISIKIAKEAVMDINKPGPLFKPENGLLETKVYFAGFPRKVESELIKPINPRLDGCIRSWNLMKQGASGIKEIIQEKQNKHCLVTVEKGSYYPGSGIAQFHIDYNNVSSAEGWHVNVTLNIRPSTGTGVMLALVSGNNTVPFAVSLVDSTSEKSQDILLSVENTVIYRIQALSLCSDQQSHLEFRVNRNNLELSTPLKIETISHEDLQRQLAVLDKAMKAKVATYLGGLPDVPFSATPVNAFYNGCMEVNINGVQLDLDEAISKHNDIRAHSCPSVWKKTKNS

T3: human GAS6 (human, UniProt Q14393 49-678, limits assumed)
T3 construct: Immobilized on the Biacore chip; also called protein encoded by the Growth Arrest Specific-6 gene; anti-target
T3 sequence (looked up): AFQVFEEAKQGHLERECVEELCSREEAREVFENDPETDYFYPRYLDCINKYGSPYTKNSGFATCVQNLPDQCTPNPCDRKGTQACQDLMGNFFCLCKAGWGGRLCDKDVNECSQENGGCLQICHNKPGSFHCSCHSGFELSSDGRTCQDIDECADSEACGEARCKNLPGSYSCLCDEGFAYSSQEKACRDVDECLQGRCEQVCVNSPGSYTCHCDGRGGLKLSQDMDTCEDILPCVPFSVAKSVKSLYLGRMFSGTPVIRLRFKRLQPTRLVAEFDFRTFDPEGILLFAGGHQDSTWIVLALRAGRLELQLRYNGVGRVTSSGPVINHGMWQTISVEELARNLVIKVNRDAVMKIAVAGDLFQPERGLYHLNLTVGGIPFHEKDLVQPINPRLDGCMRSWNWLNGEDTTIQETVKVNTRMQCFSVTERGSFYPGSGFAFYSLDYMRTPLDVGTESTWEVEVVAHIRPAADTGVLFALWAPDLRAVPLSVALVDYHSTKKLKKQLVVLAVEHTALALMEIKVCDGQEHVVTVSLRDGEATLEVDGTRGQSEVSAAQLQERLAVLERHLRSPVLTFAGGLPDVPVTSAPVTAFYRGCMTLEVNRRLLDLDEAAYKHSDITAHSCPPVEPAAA


Columns and labels:
human Protein S [1] = biological target: T1, human Protein S; test: Biacore and LANCE IC50
human Protein S [2] = biological target: T2, human Protein S; test: LANCE competition
Outline: (§1)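 IC50 was derived by non-linear regression of the acceptor emission in a LANCE time-resolved FRET competition assay using europium-labelled Protein S, ULight-labelled streptavidin, a biotinylated tracer peptide and three-fold titrations of unlabelled test peptide. Reactions of 50 µl contained 10 nM Protein S, 100 nM streptavidin and 300 nM tracer at final concentration (2 nM Protein S and 60 nM tracer on a Tecan F500), were kept 1 hour at room temperature, and were read at Ex 340 nm, Em 665 nm.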

human Protein S [3] = biological target: T2, human Protein S; test: LANCE competition
Outline: as §1

human Protein S [4] = biological target: T1, human Protein S; test: cell-based or functional assay
human GAS6 = biological target: T3, human GAS6; test: method not restated (Biacore in Example 3)
Outline: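 Binding to the anti-target human GAS6 was tested by surface plasmon resonance (Biacore), with 1000 RU GAS6 immobilized on a […] chip. Peptides were injected at various concentrations in HBS-buffer with 3 mM CaCl₂ and 1% DMSO, and the chip was regenerated with 4 M MgCl₂. Kinetic fitting of the GAS6 signals was error prone, so sensorgrams were reviewed visually to estimate anti-target binding.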

human Protein S [5] = biological target: T1, human Protein S; test: Biacore (SPR), Protein S immobilized
Outline: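 Surface plasmon resonance was used to measure peptide binding kinetics to human full-length Protein S, and Kd was calculated from the kon and koff obtained by Langmuir model fits of the sensorgrams. The protein was immobilized at 1000 RU on a […] chip in a Biacore 3000 or Biacore T200. Peptides were injected at various concentrations in HBS-buffer with 3 mM CaCl₂ and 1% DMSO, and the chip was regenerated using 4 M MgCl₂ in HBS-buffer.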

human Protein S [6] = biological target: T2, human Protein S; test: LANCE competition
Outline: as §1

human Protein S [7] = biological target: T1, human Protein S; test: cell-based or functional assay; remark: listed apart in the source
human Protein S [8] = biological target: T1, human Protein S; test: LANCE TR-FRET competition; Eu-labeled Protein S; competitor tracer JBS0684
Procedure: Peptides also were characterized in a competition, homogenous europium-based TR-FRET assay (LANCE IC50 assay) using JBS0684 as a tracer (i.e., competitor for Protein S binding). The following reagents were mixed together in a Perkin-Elmer ProxiPlate MTP well (indicated concentration is the final concentration): Eu-labeled Protein S (10 nM), Ulight™-labeled Streptavidin (100 nM), tracer (JBS0684 (300 nM)), and peptide (titrated in three-fold dilution steps). The final volume was 50 μl/well. The reaction mix was incubated for 1 hour at room temperature, then the fluorescence emission at 665 nm was recorded on a multi-mode reader (SpectraMax® M5, Molecular Devices) using the following instrument settings: Ex 340 nm, Em 665 nm, delay 50 μsec, integration 100 μsec, reads 100. Binding of tracer peptides to soluble europium-labeled Protein S was detected by Streptavidin labeled with an acceptor fluorophor (ULight™). Inhibition of tracer-binding to Protein S by a non-biotinylated peptide results in a decrease of TR-FRET between the Eu-labeled Protein S and ULight™-labeled Streptavidin. IC50 values were obtained from peptide titration curves at constant tracer concentration using non-linear regression of the fluorescence emission signals at 665 nm.
Several peptides having multiple substitutions in the JBS2572 amino acid sequence were synthesized and evaluated using LANCE IC50 and CAT assays described above. For the assays, pooled normal plasma was supplemented with 3 nM APC and triggered with 6 pM TF, and 15 μM phospholipids (DOPC/POPS 80/20). Stock APC was diluted with TF-PL-MIX to 24 nM (plasma concentration: 3 nM).

| Binder | binding result (human Protein S [1]) | IC50 (human Protein S [2]) | IC50 (human Protein S [3]) [nM] | other results |
| --- | --- | --- | --- | --- |
| Ac-YGIVSAGWYDYNTDTYYEFY-NH2 [JBS3221] | binds | – | – | IC50 (human Protein S [6]): 0.6 nM |
| Ac-TGLVSAGWYDYNNDVYREFT-NH2 [JBS3195] | – | – | 2.1 | CAT EC50 (human Protein S [7]): 139 nM; IC50 (human Protein S [8]): 2 nM |
| Ac-EYYVSAGWYDYMTDTYTEFE-NH2 [JBS3235] | binds | – | 1.4 | – |
| Ac-TGLVSAGWYDYNFDHYREFTC-NH2 (not fully specified (residue 21); also: tetramer: four peptides on a 40 kD four-arm PEG core) [JBS3179] | – | – | 8 | CAT EC50 (human Protein S [4]): 6 nM; CAT EC50, plasmas from three individuals with severe hemophilia A (human Protein S [4]): < 100 nM; binding result (human GAS6): no binding (tested: 1 µM); Kd (human Protein S [5]): 0.4 nM; koff (human Protein S [5]): 0.000179 s⁻¹; kon (human Protein S [5]): 410000 M⁻¹ s⁻¹ |
| Ac-YGLVEAGWYDYNNDTYMEFT-NH2 [JBS3201] | – | – | 1.8 | CAT EC50 (human Protein S [7]): 127 nM; IC50 (human Protein S [8]): 1.9 nM |
| Ac-EYYVTAGWYDYNTDTYYEFE-NH2 [JBS3232] | binds | – | 0.9 | – |
| Ac-EYYVSAGWYDYNNDIYYEFE-NH2 [JBS3218] | binds | – | 0.9 | – |
| Ac-ESYVSAGWYDYNTDTYYEFF-NH2 [JBS3223] | binds | – | 0.7 | – |

Now from value to binder, other results behind:

| binding result (human Protein S [1]) | IC50 (human Protein S [2]) | IC50 (human Protein S [3]) [nM] | Binder | other results |
| --- | --- | --- | --- | --- |
| binds | 1 nM | – | Ac-DNYVSAGWYDYNTDTYYEFY-NH2 [JBS3297] | – |
| binds | 0.8 nM | – | Ac-EYYVSAGWYDYNTDTYYEFT-NH2 [JBS3314] | – |
| binds | – | 2.6 | Ac-EYYVEAGWYEYNTDNYYPFE-NH2 [JBS3236] | – |
| – | 2.8 nM | – | Ac-EYYVSAGWYDYNTDTYYEFEC(400Mal‑PEG)-NH2 (JBS3319 conjugated to a 40 kD PEG moiety) [JBS3318] | CAT EC50, plasmas from three individuals with severe hemophilia A (human Protein S [4]): < 100 nM; binding result (human GAS6): no binding (tested: 1 µM); Kd (human Protein S [5]): 1.4 nM; koff (human Protein S [5]): 0.000213 s⁻¹; kon (human Protein S [5]): 152000 M⁻¹ s⁻¹ |
| binds | 1.3 nM | – | Ac-HIYVTAGWYDYNTDTYHEFE-NH2 [JBS3284] | – |
| – | 4.5 nM | – | Ac-EYIVTAGWYDYNKDIYYEFK[Cys(Me-400MA)]-NH2 (reading uncertain, JBS3206 monomer comprising a 40 kD PEG moiety) [JBS3322] | CAT EC50, plasmas from three individuals with severe hemophilia A (human Protein S [4]): < 100 nM; binding result (human GAS6): no binding (tested: 1 µM); Kd (human Protein S [5]): 3.6 nM; koff (human Protein S [5]): 0.000278 s⁻¹; kon (human Protein S [5]): 78000 M⁻¹ s⁻¹ |
| binds | 1.7 nM and 2.3 nM | – | Ac-YVEVSAGWYDYNTDTYSEFW-NH2 [JBS3281] | – |
| binds | – | 1 | Ac-EVIVSAGWYDYNNDIYYEFW-NH2 [JBS3274] | – |
| binds | – | 2.2 | Ac-DVHVSAGWYDYNKDIYYEFT-NH2 [JBS3296] | – |
| binds | 0.8 nM and 0.9 nM | – | Ac-YGIVSAGWYDMNNDYYFEFY-NH2 [JBS3258] | – |
| binds | 1.6 nM | – | Ac-EGYVSAGWYDYNQDIYFEFA-NH2 [JBS3260] | – |
